Reference: patent publication US20260201008A1, “SECRETIN-DERIVED GLP1R SELECTIVE AGONISTS” (GUBRA A/S, priority 2023, published 2026)
Numbered stars: 1 amine (or outer) side, 2 acyl side, 3 side chain; on linkers, the order of the positions; unused ones are H or OH. Square brackets hold non-standard residues; d marks the D form. Side chains are listed from the residue outwards. Ends that are not written are not given here. * marks the point of attachment. C20 diacid = O=C(O)CCCCCCCCCCCCCCCCCCC(=O)*; γGlu = O=C(O)[C@H](CCC(=O)[*:2])N[*:1]; AEEA = NCCOCCOCC(=O)O; Aib = CC(C)(N)C(=O)O

How the values were obtained:
[1] = target: human secretin receptor (hSCTR) (human, UniProt P47872 23-440); experiment: cell-based or functional assay
[2] = target: human GLP-1 receptor (hGLP1R) (human, UniProt P43220 24-463); experiment: cell-based or functional assay

human secretin receptor (hSCTR), sequence (P47872 23-440): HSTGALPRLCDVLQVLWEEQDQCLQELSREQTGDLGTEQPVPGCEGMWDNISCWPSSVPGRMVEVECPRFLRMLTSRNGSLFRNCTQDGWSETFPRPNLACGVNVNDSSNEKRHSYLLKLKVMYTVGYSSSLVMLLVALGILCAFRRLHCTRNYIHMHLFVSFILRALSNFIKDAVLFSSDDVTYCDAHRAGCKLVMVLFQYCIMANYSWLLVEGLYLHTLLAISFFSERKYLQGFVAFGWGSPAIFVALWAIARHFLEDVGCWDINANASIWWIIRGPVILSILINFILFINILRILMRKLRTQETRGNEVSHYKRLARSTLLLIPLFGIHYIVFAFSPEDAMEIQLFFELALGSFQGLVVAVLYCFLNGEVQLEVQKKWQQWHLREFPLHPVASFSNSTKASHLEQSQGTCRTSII

Row | Binder | pEC50 hSCTR [1] | pEC50 hGLPR1 [2]
1 | H[Aib]EGTFTSDVSLLKEEA[Aib]LQRFLEHLV-NH2 (not fully specified (residue 14)) [SEQ ID NO: 149] | 7.5 -log M | 10.9 -log M
2 | H[Aib]EGTFTSDVSYLKEEA[Aib]LQRFLEELV-NH2 (not fully specified (residue 14)) [SEQ ID NO: 151] | 6.9 -log M | 10.6 -log M
3 | H[Aib]EGTFTSDVSDLKEEA[Aib]LQRFLEHLV-NH2 (not fully specified (residue 14)) [SEQ ID NO: 153] | 6.5 -log M | 10.7 -log M
4 | H[Aib]EGTFTSDVSYLKEEA[Aib]GQRFLEHLV-NH2 (not fully specified (residue 14)) [SEQ ID NO: 154] | 5.4 -log M | 10.8 -log M
5 | H[Aib]VGTFTSDVSYLKEEA[Aib]LQRFLEHLV-NH2 (not fully specified (residue 14)) [SEQ ID NO: 155] | 4.6 -log M | 10.9 -log M
6 | H[Aib]EGTFTSDVSYLKEEA[Aib]EQRFLEHLV-NH2 (not fully specified (residue 14)) [SEQ ID NO: 150] | 5.5 -log M | 11.3 -log M
7 | H[Aib]EGTFTSDVSRLK([AEEA-AEEA-γGlu-C20 diacid])EFAAAQRFLEHLV-NH2 [SEQ ID NO: 2] | 6.3 -log M | 10.1 -log M
8 | H[Aib]QGTFTSDVSYLKEEA[Aib]LQRFLEHLV-NH2 (not fully specified (residue 14)) [SEQ ID NO: 156] | 4.4 -log M | 10.8 -log M
9 | H[Aib]EGTFTSDVSYLKEEA[Aib][Aib]QRFLEHLV-NH2 (not fully specified (residue 14)) [SEQ ID NO: 152] | 5.4 -log M | 10.9 -log M
10 | H[Aib]EGTFTSDVSYL[Aib]EEA[Aib]LQRFLEKLV-NH2 (not fully specified (residue 25)) [SEQ ID NO: 158] | 5.8 -log M | 10.4 -log M
11 | H[Aib]YGTFTSDVSYLKEEA[Aib]LQRFLEHLV-NH2 (not fully specified (residue 14)) [SEQ ID NO: 159] | 4.6 -log M | 9.1 -log M
12 | H[Aib]EGTFTSDVSRLK([AEEA-AEEA-γGlu-C20 diacid])EEAASQRFLEHLV-NH2 [SEQ ID NO: 17] | 6.6 -log M | 10.6 -log M
13 | H[Aib]WGTFTSDVSYLKEEA[Aib]LQRFLEHLV-NH2 (not fully specified (residue 14)) [SEQ ID NO: 160] | 4.6 -log M | 9.1 -log M
14 | H[Aib]EGTFTSDVSYLKEEA[Aib]QQRFLEHLV-NH2 (not fully specified (residue 14)) [SEQ ID NO: 157] | 6.5 -log M | 11.6 -log M
15 | H[Aib]EGTFTSDVSTLKE[Aib]AAEQRFLEHLV-NH2 (not fully specified (residue 14)) [SEQ ID NO: 16] | 6.9 -log M | 10.4 -log M

Further lines, results first:

Row | pEC50 hSCTR [1] | pEC50 hGLPR1 [2] | Binder
16 | 4.6 -log M | 10.6 -log M | H[Aib]LGTFTSDVSYLK([AEEA-AEEA-γGlu-C20 diacid])EEA[Aib]LQRFLEHLV-NH2 [SEQ ID NO: 170]
17 | 6.8 -log M | 11.4 -log M | H[Aib]EGTFTSDVSYLKEEA[Aib]VQRFLEHLV-NH2 (not fully specified (residue 14)) [SEQ ID NO: 161]
18 | 6.3 -log M | 10.4 -log M | H[Aib]EGTFTSDVSYLK([AEEA-AEEA-γGlu-C20 diacid])EEA[Aib]LQRFLEWLV-NH2 [SEQ ID NO: 169]
19 | 6.5 -log M | 11.1 -log M | HAEGTFTSDVSYLK([AEEA-AEEA-γGlu-C20 diacid])EEA[Aib]LQRFLEHLV-NH2 [SEQ ID NO: 166]
20 | 7.4 -log M | 10.9 -log M | H[Aib]EGTFTSDVS[Aib]LKEEA[Aib]LQRFLEHLV-NH2 (not fully specified (residue 14)) [SEQ ID NO: 163]
21 | 5.1 -log M | 10.5 -log M | H[Aib]IGTFTSDVSYLK([AEEA-AEEA-γGlu-C20 diacid])EEA[Aib]LQRFLEHLV-NH2 [SEQ ID NO: 175]
22 | 8 -log M | 11.2 -log M | H[Aib]EGTFTSDVSTLK([AEEA-AEEA-γGlu-C20 diacid])EEA[Aib]LQRFLEHLV-NH2 [SEQ ID NO: 165]
23 | 6.8 -log M | 10.9 -log M | H[Aib]EGTFTSDVSFLK([AEEA-AEEA-γGlu-C20 diacid])EEA[Aib]LQRFLEHLV-NH2 [SEQ ID NO: 173]
24 | 4.5 -log M | 9.8 -log M | H[Aib]HGTFTSDVSYLK([AEEA-AEEA-γGlu-C20 diacid])EEA[Aib]LQRFLEHLV-NH2 [SEQ ID NO: 171]
25 | 6.6 -log M | 10.7 -log M | H[Aib]EGTFTSDVSYLHEEA[Aib]LQRFLEKLV-NH2 (not fully specified (residue 25)) [SEQ ID NO: 164]
26 | 7 -log M | 10.9 -log M | H[Aib]EGTFTSDVSWLK([AEEA-AEEA-γGlu-C20 diacid])EEA[Aib]LQRFLEHLV-NH2 [SEQ ID NO: 174]
27 | 7.7 -log M | 10.8 -log M | H[Aib]EGTFTSDVSILK([AEEA-AEEA-γGlu-C20 diacid])EEA[Aib]LQRFLEHLV-NH2 [SEQ ID NO: 172]
28 | 7 -log M | 11.2 -log M | H[Aib]EGTFTSDVSGLK([AEEA-AEEA-γGlu-C20 diacid])EEA[Aib]LQRFLEHLV-NH2 [SEQ ID NO: 167]
29 | 6.9 -log M | 12.2 -log M | H[Aib]EGTFTSDVSYLKEEA[Aib]TQRFLEHLV-NH2 (not fully specified (residue 14)) [SEQ ID NO: 162]
